In patent publication US20220267379A1, “NOVEL INHIBITORS OF […] AND USES THEREOF” (Ecole Polytechnique Federale de Lausanne (EPFL), priority 2019, published 2022):
Positions of bridges follow the written chain, without caps; N, C: chain ends. Non-standard residues stand in square brackets, D forms with d. Chains are numbered I, II in the order given. No end group written: not given here. *: point of attachment. Palmitoyl = CCCCCCCCCCCCCCCC(=O)*; hArg = N=C(N)NCCCC[C@H](N)C(=O)O; Nle = CCCC[C@H](N)C(=O)O

Key:
[1] = target: T1, human Kallikrein-related peptidase 7 (hKLK7) (human), P49862; assay: enzyme inhibition; 2,6-bis(bromomethyl)pyridine linker; conditions: modification not given
Target sequence in this assay (P49862 30-253): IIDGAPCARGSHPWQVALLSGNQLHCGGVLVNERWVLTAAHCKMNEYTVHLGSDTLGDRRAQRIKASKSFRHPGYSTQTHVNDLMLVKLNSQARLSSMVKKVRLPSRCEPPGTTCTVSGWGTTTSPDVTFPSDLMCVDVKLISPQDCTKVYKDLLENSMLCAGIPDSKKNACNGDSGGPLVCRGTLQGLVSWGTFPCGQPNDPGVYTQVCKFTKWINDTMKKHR

[2] = target: T1, human Kallikrein-related peptidase 7 …; assay: enzyme inhibition; pyridine linker; conditions: modification not given
Target sequence in this assay (P49862 30-253): as above

[3] = target: T1, human Kallikrein-related peptidase 7 …; assay: enzyme inhibition; ketone linker; conditions: modification not given
Target sequence in this assay (P49862 30-253): as above

[4] = target: T1, human Kallikrein-related peptidase 7 …; assay: enzyme inhibition; 1,3-dibromoacetone linker; conditions: modification not given
Target sequence in this assay (P49862 30-253): as above

[5] = target: T1, human Kallikrein-related peptidase 7 …; assay: substrate-based activity assay
Target sequence in this assay (P49862 30-253 limits assumed): as the sequence (P49862 30-253) above

[6] = target: human serum albumin (HSA) (human), P02768; assay: fluorescence polarization
[7] = target: human Kallikrein-related peptidase 5 (hKLK5) (human), Q9Y337; assay: enzyme inhibition; 2,6-bis(bromomethyl)pyridine linker; conditions: modification not given
Chain of human Kallikrein-related peptidase 5 (hKLK5) (human), Q9Y337 (Q9Y337 67-293): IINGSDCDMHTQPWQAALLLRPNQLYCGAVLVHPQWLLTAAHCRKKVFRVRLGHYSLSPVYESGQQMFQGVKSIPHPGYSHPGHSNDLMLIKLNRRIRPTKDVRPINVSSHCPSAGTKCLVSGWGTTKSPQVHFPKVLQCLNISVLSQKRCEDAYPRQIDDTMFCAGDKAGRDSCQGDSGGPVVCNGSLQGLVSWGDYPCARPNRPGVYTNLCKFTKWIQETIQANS

RCDSSQCMQGQCLYRSCP [007]
Ki [1]: 94 nM

HCRKGLDRCPQCLYRTCS [008]
Ki [1]: 66 nM

PCLYRSCS [086]
Ki [2]: 53 nM

PCLYLSRCS [095]
Ki [3]: 90 nM

PCLYLSCS [080]
Ki [2]: 29.4 nM

RCLYLSCS [082]
Ki [2]: 8.8 nM

PCLYLSCP [089]
Ki [2]: 50 nM

FCLWPWCQPPEACPSQCE [012]
Ki [4]: > 1000 nM

PCLYLTCS [088]
Ki [2]: 52 nM

B1: KLK7 inhibitor 278-tag (final KLK7 inhibitor) (peptide)
peptide 1: PCLY[Nle]A[hArg]CGKG
peptide 2: EYEK(Palmitoyl)EYE
modifications: bridge I:2-I:8; not fully specified (some residues, N-terminus, bridges); also: chain 2 (albumin tag) attached via PEG2 to Lys10 side chain of chain 1 (branched)
Ki [5]: 7.4 nM | Kd [6]: 164 nM

PCLYLAC [109]
Ki [2]: 19 nM

QCLYLSCS [081]
Ki [2]: 12 nM

PCLYLAQCS [112]
Ki [3]: 36 nM

PCLYMARCS [111]
Ki [3]: 10 nM

QCLYIACPSAAKCDNGCQ [009]
Ki [1]: 32 nM

ACTREYNPQCANPQCLCH [003]
Ki [7]: 6 nM

PCLYLACS [087]
Ki [2]: 17.5 nM
